The text below walks through data of paper doi:10.1101/2021.02.19.432005 (bioRxiv, 2021).

Where two headings read alike, the source gives them in different places.

B1: Jagged1 full ectodomain, wild type (Jagged1^fe,wt) (domain or fragment)
chain: ASGQFELEILSMQNVNGELQNGNCCGGVRNPGDRKCTRDECDTYFKVCLKEYQSRVTAGGPCSFGSGSTPVIGGNTFNLKASRGNDRNRIVLPFSFAWPRSYTLLVEAWDSSNDTIQPDSIIEKASHSGMINPSRQWQTLKQNTGIAHFEYQIRVTCDDHYYGFGCNKFCRPRDDFFGHYACDQNGNKTCMEGWMGPDCNKAICRQGCSPKHGSCKLPGDCRCQYGWQGLYCDKCIPHPGCVHGTCNEPWQCLCETNWGGQLCDKDLNYCGTHQPCLNRGTCSNTGPDKYQCSCPEGYSGPNCEIAEHACLSDPCHNRGSCKETSSGFECECSPGWTGPTCSTNIDDCSPNNCSHGGTCQDLVNGFKCVCPPQWTGKTCQLDANECEAKPCVNARSCKNLIASYYCDCLPGWMGQNCDININDCLGQCQNDASCRDLVNGYRCICPPGYAGDHCERDIDECASNPCLNGGHCQNEINRFQCLCPTGFSGNLCQLDIDYCEPNPCQNGAQCYNRASDYFCKCPEDYEGKNCSHLKDHCRTTTCEVIDSCTVAMASNDTPEGVRYISSNVCGPHGKCKSQSGGKFTCDCNKGFTGTYCHENINDCESNPCKNGGTCIDGVNSYKCICSDGWEGAHCENNINDCSQNPCHYGGTCRDLVNDFYCDCKNGWKGKTCHSRDSQCDEATCNNGGTCYDEVDTFKCMCPGGWEGTTCNIARNSSCLPNPCHNGGTCVVNGDSFTCVCKEGWEGPICTQNTNDCSPHPCYNSGTCVDGDNWYRCECAPGFAGPDCRININECQSSPCAFGATCVDEINGYQCICPPGHSGAKCHEVSGRSCITMGRVILDGAKWDDDCNTCQCLNGRVACSKVWCGPRPCRLHKSHNECPSGQSCIPVLDDQCFVRPCTGVGECRSSSLQPVKTKCTSDSYYQDNCANITFTFNKEMMSPGLTTEHICSELRNLNILKNVSAEYSIYIACEPSLSANNEIHVAISAEDIRDDGNPVKEITDKIIDLVSKRDGNSSLIAAVAEVRVQRRPLKNRTD
B2: Jagged1^EGF8-11,Fc (Fc-tagged, covalently dimerized) (Fc fusion)
chain: DIDECASNPCLNGGHCQNEINRFQCLCPTGFSGNLCQLDIDYCEPNPCQNGAQCYNRASDYFCKCPEDYEGKNCSHLKDHCRTTTCEVIDSCTVAMASNDTPEGVRYISSNVCGPHGKCKSQSGGKFTCDCNKGFTGTYCHENINDCESNPCKNGGTCIDGVNSYKCICSDGWEGAHCE
B3: Notch1^EGF8-13, C-terminally biotinylated SPR ligand (domain or fragment)
chain: EDVDECQLMPNACQNGGTCHNTHGGYNCVCVNGWTGEDCSENIDDCASAACFQGATCHDRVASFYCECPHGRTGLLCHLNDACISNPCNEGSNCDTNPVNGKAICTCPSGYTGPACSQDVDECALGANPCEHAGKCLNTLGSFECQCLQGYTGPRCEIDVNECISNPCQNDATCLDQIGEFQCICMPGYEGVYCEINTDECASSPCLHNGHCMDKINEFQCQCPKGFNGHLCQ
modifications: biotin on the C-terminal biotin acceptor peptide
B4: Notch1^NRRΔloop (domain or fragment)
chain: EEACELPECQVDAGNKVCNLQCNNHACGWDGGDCSLNFNDPWKNCTQSLQCWKYFSDGHCDSQCNSAGCLFDGFDCQLTEGQCNPLYDQYCKDHFSDGHCDQGCNSAECEWDGLDCAEHVPERLAAGTLVLVVLLPPDQLRNNSFHFLRELSHVLHTNVVFKRDAQGQQMIFPYYGDIRGSIVYLEIDNRQCVQSSSQCFQSATDVAAFLGALASLGSLNIPYKIEAVKSEPVE
B5: Jagged1^CRD,Fc (Fc-tagged, covalently dimerized) (Fc fusion)
chain: EVSGRSCITMGRVILDGAKWDDDCNTCQCLNGRVACSKVWCGPRPCRLHKSHNECPSGQSCIPVLDDQCFVRPCTGVGECRSSSLQPVKTKCTSDSYYQDNCANITFTFNKEMMSPGLTTEHICSELRNLNILKNVSAEYSIYIACEPSLSANNEIHVAISAEDIRDDGNPVKEITDKIIDLVSKRDGNSSLIAAVAEVRVQRRPLKNRTD
B6: Notch1 negative regulatory region (Notch1^NRR) (domain or fragment)
chain: EEACELPECQVDAGNKVCNLQCNNHACGWDGGDCSLNFNDPWKNCTQSLQCWKYFSDGHCDSQCNSAGCLFDGFDCQLTEGQCNPLYDQYCKDHFSDGHCDQGCNSAECEWDGLDCAEHVPERLAAGTLVLVVLLPPDQLRNNSFHFLRELSHVLHTNVVFKRDAQGQQMIFPYYGHEEELRKHPIKRSTVGWATSSLLPGTSGGRQRRELDPMDIRGSIVYLEIDNRQCVQSSSQCFQSATDVAAFLGALASLGSLNIPYKIEAVKSEPVE
B7: Jagged1^C2-EGF3,wt, C-terminally biotinylated SPR ligand (domain or fragment)
chain: ASGQFELEILSMQNVNGELQNGNCCGGVRNPGDRKCTRDECDTYFKVCLKEYQSRVTAGGPCSFGSGSTPVIGGNTFNLKASRGNDRNRIVLPFSFAWPRSYTLLVEAWDSSNDTIQPDSIIEKASHSGMINPSRQWQTLKQNTGIAHFEYQIRVTCDDHYYGFGCNKFCRPRDDFFGHYACDQNGNKTCMEGWMGPDCNKAICRQGCSPKHGSCKLPGDCRCQYGWQGLYCDKCIPHPGCVHGTCNEPWQCLCETNWGGQLCDKDLNYCGTHQPCLNRGTCSNTGPDKYQCSCPEGYSGPNCE
modifications: biotin on the C-terminal biotin acceptor peptide
B8: Notch1 full ectodomain (Notch1^fe), mouse (domain or fragment)
chain: ARGLRCSQPSGTCLNGGRCEVANGTEACVCSGAFVGQRCQDSNPCLSTPCKNAGTCHVVDHGGTVDYACSCPLGFSGPLCLTPLDNACLANPCRNGGTCDLLTLTEYKCRCPPGWSGKSCQQADPCASNPCANGGQCLPFESSYICRCPPGFHGPTCRQDVNECSQNPGLCRHGGTCHNEIGSYRCACRATHTGPHCELPYVPCSPSPCQNGGTCRPTGDTTHECACLPGFAGQNCEENVDDCPGNNCKNGGACVDGVNTYNCRCPPEWTGQYCTEDVDECQLMPNACQNGGTCHNTHGGYNCVCVNGWTGEDCSENIDDCASAACFQGATCHDRVASFYCECPHGRTGLLCHLNDACISNPCNEGSNCDTNPVNGKAICTCPSGYTGPACSQDVDECALGANPCEHAGKCLNTLGSFECQCLQGYTGPRCEIDVNECISNPCQNDATCLDQIGEFQCICMPGYEGVYCEINTDECASSPCLHNGHCMDKINEFQCQCPKGFNGHLCQYDVDECASTPCKNGAKCLDGPNTYTCVCTEGYTGTHCEVDIDECDPDPCHYGSCKDGVATFTCLCQPGYTGHHCETNINECHSQPCRHGGTCQDRDNSYLCLCLKGTTGPNCEINLDDCASNPCDSGTCLDKIDGYECACEPGYTGSMCNVNIDECAGSPCHNGGTCEDGIAGFTCRCPEGYHDPTCLSEVNECNSNPCIHGACRDGLNGYKCDCAPGWSGTNCDINNNECESNPCVNGGTCKDMTSGYVCTCREGFSGPNCQTNINECASNPCLNQGTCIDDVAGYKCNCPLPYTGATCEVVLAPCATSPCKNSGVCKESEDYESFSCVCPTGWQGQTCEVDINECVKSPCRHGASCQNTNGSYRCLCQAGYTGRNCESDIDDCRPNPCHNGGSCTDGINTAFCDCLPGFQGAFCEEDINECASNPCQNGANCTDCVDSYTCTCPVGFNGIHCENNTPDCTESSCFNGGTCVDGINSFTCLCPPGFTGSYCQYDVNECDSRPCLHGGTCQDSYGTYKCTCPQGYTGLNCQNLVRWCDSAPCKNGGRCWQTNTQYHCECRSGWTGVNCDVLSVSCEVAAQKRGIDVTLLCQHGGLCVDEGDKHYCHCQAGYTGSYCEDEVDECSPNPCQNGATCTDYLGGFSCKCVAGYHGSNCSEEINECLSQPCQNGGTCIDLTNSYKCSCPRGTQGVHCEINVDDCHPPLDPASRSPKCFNNGTCVDQVGGYTCTCPPGFVGERCEGDVNECLSNPCDPRGTQNCVQRVNDFHCECRAGHTGRRCESVINGCRGKPCKNGGVCAVASNTARGFICRCPAGFEGATCENDARTCGSLRCLNGGTCISGPRSPTCLCLGSFTGPECQFPASSPCVGSNPCYNQGTCEPTSENPFYRCLCPAKFNGLLCHILDYSFTGGAGRDIPPPQIEEACELPECQVDAGNKVCNLQCNNHACGWDGGDCSLNFNDPWKNCTQSLQCWKYFSDGHCDSQCNSAGCLFDGFDCQLTEGQCNPLYDQYCKDHFSDGHCDQGCNSAECEWDGLDCAEHVPERLAAGTLVLVVLLPPDQLRNNSFHFLRELSHVLHTNVVFKRDAQGQQMIFPYYGHEEELRKHPIKRSTVGWATSSLLPGTSGGRQRRELDPMDIRGSIVYLEIDNRQCVQSSSQCFQSATDVAAFLGALASLGSLNIPYKIEAVKSEPVE

The target in data set [1] is Jagged1^C2-EGF3,HA (mouse) (UniProt Q9QXX0). The data set can be described thus: MST.
Data set [2] deals with B8. The data set can be described thus: cross-linking.
Data set [3] deals with B7. The data set can be described thus: SPR.
Data set [4] addresses Notch1^EGF33-NRR, C-terminally biotinylated SPR ligand (mouse) (UniProt Q01705). The data set can be described thus: SPR.
The target of another data set is T1, Notch1^EGF33-NRR (mouse, UniProt Q01705 1267-1717).
T1 sequence: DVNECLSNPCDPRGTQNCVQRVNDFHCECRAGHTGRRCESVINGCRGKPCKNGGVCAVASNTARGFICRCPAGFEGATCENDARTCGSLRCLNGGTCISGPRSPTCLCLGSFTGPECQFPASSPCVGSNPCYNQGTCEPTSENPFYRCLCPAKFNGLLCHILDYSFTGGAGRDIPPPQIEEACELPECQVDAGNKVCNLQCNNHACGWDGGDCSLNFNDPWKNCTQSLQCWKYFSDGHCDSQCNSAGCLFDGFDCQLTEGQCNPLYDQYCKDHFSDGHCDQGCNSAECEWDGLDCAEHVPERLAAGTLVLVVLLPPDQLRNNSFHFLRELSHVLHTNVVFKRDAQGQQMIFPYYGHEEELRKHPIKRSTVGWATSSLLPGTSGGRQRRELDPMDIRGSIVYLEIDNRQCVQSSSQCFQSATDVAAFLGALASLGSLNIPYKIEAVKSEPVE
The data set can be described thus: SPR.

Data set [5] deals with B7. The data set can be described thus: SPR. The source holds these as a separate data set.
The data set “SEC-MALS” deals with the molecule itself. The data set can be described thus: SEC-MALS.
The data set “cross-linking” concerns the molecule itself. The data set can be described thus: cross-linking.

As for “Notch1^EGF33-NRR (from UniProt Q01705 1267-1717) (domain or fragment)”, the Kd in data set [1] came out at 500 nM. For the molecule B1, in data set [2], the binding result was “binds”. Consider B2, for which the dissociation constant (Kd) was found to be 340 nM in data set [3] and 290 nM in data set [4]. In turn, B3 showed a Kd with Notch1^EGF33-NRR of 115 µM. The molecule B4 yielded a Kd in data set [5] of roughly 1000 nM. As for B5, the dissociation constant Kd in data set [3] was found to be 930 nM; in data set [4], 290 nM. As to B6, the “stoichiometry N” value in the data set “SEC-MALS” amounted to 2. As for B7, the binding result in the data set with Notch1^EGF33-NRR was “binds”.

On to B8, for which the binding result in “cross-linking” was “binds”.
